Measurements reported in the nanobody polyreactivity screen of Harvey et al. (2022).

Assay: yeast display, Sf9 membrane polyspecificity reagent, FACS + sequencing; frameworks hold sequencing errors
Method in brief: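 Galactose-induced (36–48 hours) yeast carrying a synthetic nanobody display library were exposed to 10% biotinylated, detergent-solubilized Sf9 membrane reagent at 4 °C for 1 hour. FACS followed streptavidin microbead enrichment, using low and high (top ~1%) gates for expression (anti-HA) and reagent binding (streptavidin). Colony PCR, MiSeq 2 × 250 sequencing and CDR-length filtering followed. Labels for polyreactivity reflect the gate of origin.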

| Sequence | polyreactivity (PSR sort gate) |
| --- | --- |
| QVQLVESGGGLVQAGGSLRLSCAASGFIFFQYAMGWYRQAPGKERELVAAISGSGVTTYYADSVKGRFTISRDNAKNTVYLQMKSLKPEDTPVYYCAARPSGRGYYLLGYWGQGTQVTVSS | low polyreactivity |
| QVQLVESGGGLVQAGGSLRLSCAASGIIFAYYALGWYRQAPGKERELVAGITQSGGDTYYADSVKGRFTISRDNAKNTVYLQLNSLKPEDTAVYYCAAGWWGYDYWGQGTQVTVSS | high polyreactivity |
| QVHLVESGGGLVQAGGSLRLSCAASGYIFGGYAMGWSRQAPGKEREFVAAISDISGSTYYADSVKGRFTISRDNAKNTVYLQMNSLKPEDTAVYYGGHTSTADEDYWGQGTQVTVSS | low polyreactivity |
| QVQLVESGRGLVQAGGSLRLSCAASGYIFDRYAMGWSRQAPGKERELVAAISGRGGSTYYADSVKGRFTISRDNAKNTVYLQMNSLNPEDTAVYYCARDVYVRNGQRARYDSWGQGTQVTVSS | high polyreactivity |
| QVQLVESGGGLVQAGGRLRISCAASGFTFTRYAMRWYRQAPGKERELVAAISWSGGSTYYADSVKGRFTISRDNAKNTVSFQMNSLKPEDTAVYYCAKRGTVRQGGYGFWGQGTQVSVSS | high polyreactivity |
| QVQLVESGGGLVQAGGSLRLSCAASGRIFVVYAMGWSRQAPGKERELVAAIRSGGSTNYADSVKGRFTISRDNAKNTVYFQLNSLKPEDTAVYNCAARKWHSAYDYWGQGTQVTVSS | high polyreactivity |
| QVQLVESGGGLVQAGCSLRLSCAASGSIRGYAMGWSRQAPGKERELVASITWSGGSTYYADSVKGRFTMSRDNAKYTVYLQMHSLNPEDTAVYYCAASPSPYASVIRPYDYWGQGTQVTVSS | low polyreactivity |
| QVQLVESGGGLVQAGGSLRLSCAASGRIFPWYTMGWYRQAPGKESELVATIRGSGGSTHYADSVKGRFTISRDNAKNTVYLQMNSLKPEDTAVYYCATDRPRYRYQYKFDYWGQGTQVTVSS | low polyreactivity |
| QVQLVESGGGLVQAGGSLRLSCAASGLIFYDNMGWYRPAPGKERELVAAISSSGGSTSYADSVKGRFTISRDNAKNTVYLQMNSLKPEDTAVYYCAARLVYEWRRLDYFIAWDYWGQGTQVTVSS | low polyreactivity |
| QVQLVESGGGLVQAGGSLRLSCAASGFIFVYYARGWYRQAPGKEMELVAAISRGGSTYYADSVKGRFTISRDNAKNTVYLQMNSLKPEDTAFYYCNKVLPYGREYGYWGQGTQVTVSS | high polyreactivity |
| QVQLEESGGGLVQAGGSLRLSCAASGIIFYRSVMGWYRQAPGKERELVAAITGGGSTYYADSVKGRFTISRDNAKNTVYLQMNSLKPEDTAVYYCNADIRAYTVLTGGYIYDYWGQVTQVTVSS | high polyreactivity |
| QVQLVESGGGLVQAGGSLRLSCADSGRTFQRHARGWYRKAPGKEREFVAAISKSGGRTYYADSVKGRFTISRDTAKNTVSLQMNSLKPEDTAVYYCNRGSTHDLSHPELYGYWGQGTQVTVSS | high polyreactivity |
| QVQLVESGGGLVQAGGSLRLSCAASGRIFRYYAMGWYRQAPGKERELVAAITAGGGTTYYADSVKGRFTISSDNAKNTVYLQMNSLKPEDTAVYYCAKDGRYYSHYNYWGQGTQVTVSS | high polyreactivity |
| QVQLVESGGGLVQAGGSLRLSCAASGSTFPGYAMGWYRQAPGKERELVASITSSGDNTYYADSVKGRFTISRDNAKNSVYLQMNSLKPEDTAVYYCAAPTKYRSRRYYWGQGTQVTVSS | high polyreactivity |
| QVQLVESGGGLVQAGGSLRLSCAASGRTFRYYAMGWYRQAPAKERELVAAINWNGGRTYYADSVKGRFTISRDNAKNTVYLQMNSLKPEDTAVYYCAAYHYRSPVTGDYWGQGTQVTVSS | high polyreactivity |
| QVQLVESGGGLVQAGGSLRLSCAASGSIFSWYAMGWYRQAPGKERELVAAISWSSGSTYYADSVKGRFTISRDNAKNTVYLQMNSLKPEDTAVYYCAADATYLGWYELYYWGQGTQVTVSS | high polyreactivity |
| QVQLVESGGGLVQAGGSLRLSCAASGRTFKYNAMGWYRQAPGKERELVAAISNRGGSTYYADSVKGRFTISRDNAKNTVYLQMNSLKPEDTAVYYCAVRAVYRWSSGYGYWGQGTQVTVSS | high polyreactivity |
| QVQLVESGGGLVQAGGSLRLSCAASGRIYDVYAMGWYRQAPRKERELVATITGSGGGTYYADSVKGRFTISRDNAKNTVYLQMNSLKPEDTAVYYCAADYYPTYAYYVSNVGYDYWGQGTQVNVSS | low polyreactivity |
| QVQLVESGGGLVQAGGSLRLSCAASGSIFVPYAMGWTRQAPGKERELVAAIRRSGGRTYYADSVKGRFTISRDNAKNNVYLQMKSLKPEYTAVFYCAARQRYFWYTSNYNYWAQGTQVTVSS | high polyreactivity |
| QVQLVESGGGVVQAGGSLRLSCAASGSIFPENARGWYRQAPGKERELVAAITSSDSSTYYADSVKGRFTISRDNAKNTVYLQMNSLKPEDTAVYYCAAYRVGFRFREYYWGLGTQVTVSS | low polyreactivity |
| QVQLVESGGGLVQAGGSLRLSCAASGIIFVYYAMGWYRQAPGKERELVAAISTRGGSTYYADSVKGRFTISRDNAKNTVYLQMNSLKPEDTAVYYCAATYVYRYVPRIPSEAYDYWGQGTQVTVSS | high polyreactivity |
| QVQLVESGGGLVQAGASLRLSSAASGFIFRDYAMGWYRQAPGKDRELVAAISRGGGTTYYEDSVKGRFTISRENAKNTVYLQMNSLTPEDTAVYYCAAKSAFPLDYWGQGTQVTVSS | high polyreactivity |

| Sequence | polyreactivity (PSR sort gate) |
| --- | --- |
| QVQLVESGGGLDQAGGSLRLSCADSASTFYRYAKGWSRQAPGKEWELVAAITRTGGSTYADSVKGRFTISRDNAKNTVYLQMNSLKPEDTAVYFCAVQRYFVSSISPFYYWGQGTQVTVSS | low polyreactivity |
| QVQLVDSGGGLVQAGGSLRFSCAASGRTSNVYAMGWFRQAPGKERELVAAISARDGTTYNADSVKGRFTISRDNAKNTVYLQMNSLKPEDTAVYYCAAAVLSYADYYYDYEYWGQGTQVTVSS | high polyreactivity |
| QVQLVESCGGLVQAGGSLRLSCADSGRTFYKYAMGWYRPAPVKERELVAAITSGGGRTYYADSVKGRFTISRDNAKNTVYLQMNSLKPEDTAVYYCNAVLPLAKYEYDSWGQGTQVTVSS | high polyreactivity |
| QVQLVESGGGLVQAGGSLRLSCAASGRIFRYYAMGWYRQAPGKERELVASISNGGGTYYADSVKGRFTISRDNAKNTVYLQMNSLKPEDTAVYYCNARKWSQYIVPLRDYWGQGTQVTVSS | high polyreactivity |
| QVQLVESGGGLVQAGGSLRLSCAASGSTFSEYGMGWYRQAPGKERELVARITSGGSPYYADSVKGRFTISRDNAKYTVYLQMNSLKPEDTAVYYCATVKTRDYWGQGTQVTVSS | low polyreactivity |
| QVQLVESGGGLVQAGGSLRLSCAASGRIFYLYAMGWYRQAPGKDRELVAAITWSGGSTTYADSVKGRFTISRDTAKNTVYLQMNSLKPEDTAVYYSNADGWIFPSFSPMDYWGQGTQVTVSS | low polyreactivity |
| QVQLVESGGGLVQAGGSLRLSCAASGRIFQNYAAMGRYRPPPGKERELVASIRATGGSTYYADSVKGRFTISRDNAKNTVYLQMNSLKPEDTAVYYCAARFAAKSLPAYDYWGQGTQVTVSS | low polyreactivity |
| QVQLVESGGGLVQAGGSLRLSCAASGRTFVVNAMGWSRQAPGKERELVAAITRRGGITYYADSVKGRFTISRDNAKNTVYLQMNSLKPEDTAVYYCAADRSYYPDTRTTYGYNYWGQGTQVTVSS | low polyreactivity |
| QVQLVESGAGLVQAGGSLRISCAASGFTFAYYAMGWYRQAPGKEREFVAAITKGGGSTNYADSVKGRFTISRYNAKNTVYLQMNSLNPEDTAVYYCNADYFVWYIGRVFSRYGYWGQGTQVTVSS | low polyreactivity |
| QVQLVESGGGLVQAVGSLRLSCAPSGSLFPGYAMGWYRQAPGKERELVAAITFSGGSTYYADSVKGRFTISRDYAKQSVYLPMNSLKPEDTAVYYCAAPGWYGGYPSYYYWGQGTQVTVSS | low polyreactivity |
| QLQLVESGGGLVQAGGSLRLSCAASGNNIVFYAMGRYRQAPGKERELVAAMTSGGSTNYADSVKGRFTISRDNAKNTVYLQMNSLKPEATAVYYCAARQWFAHRRWGGSRYDYWGQGTQGTVSS | low polyreactivity |
| QVQLVESWGGLVQAGGSLRLSCAASGRTFRRNAMGWYRQSPGKERELVATISSSGGRTYYADSVKGRFTISRDNAKKTVYLQMNSLKPEDTAVYYCIKALRSYPLFYFWVQGTQVTVSS | high polyreactivity |
| QVQLQESGAGLVQAGGDLRLSCAASGNIFRDYIMGWYRQAPGKEREFVAGIDRGANTNYADSVKGRFTISRDNAKNTVYLQMNSLKPEDTAVYYCAVHTAIVPDFIYWGQGTQVTVSS | low polyreactivity |
| QVQLVESGGGLVQAGGSLRLSCAASGSTFARNAMGWYRQAHGKERELVAAITNAGDTNYADSVKGRFTISRDNAKNTVYLQMNSLKPVDTAVYYCAADPILIDEYWGQGTQVTVSS | low polyreactivity |
| QVQRVESGGGLVQAGGSLRLSCAASGSIFYGNAMGWYRQAPGKERELVAAISWSGGSTYYADSVKGRFTISRDNAKNTVYLQMNSLKPEDTAVYYCATVADEPRAYSGYEESDYWGQGTQVTVSS | low polyreactivity |
| QVQLVESGGGLVQAGGSLRLSCAASGRIFYIYTMGWYRQAPGKEREFVAGINWNGGSTYYADSVKGRFTISRDNAKNTVYLQMISLKPEDSEVYYCNADQYWDRYYYWGQGTQVTVSS | low polyreactivity |
| QVQLVESGGGLVQAGGSLRLSCAASGGTFPFYAMGWYRQAPGKERELVAAITFTTSSTYYADSVKGRFTISRDNAKNTVYLQMNSLKPEDTAVYYCAVDYGWYSSYYREYDYWGQGTQVTVSS | low polyreactivity |
| QVQLVESGGGLVQAGGSLRLSCAASGFTFQSNAMGWYRQAPGKERELVATISLTGGSTYYADSVKGRFTISRDNAKNTVYLQMNSLKPEDTAVYYCNAVRYASPYGYWGQGTQVTVSS | high polyreactivity |
| QVQLVESGGGLVQAGGSLRLSCAASGLIFNVNVMGWYRQAPGKERELVAAIDYSGGSTYYADSVKGRFTISRDNAKNTVFLQMNSLKPEDTAVYYCSADDAAWPYSWWGFDYWGQGTQVTVSS | low polyreactivity |
| QVQLVESGGGLVQAGRSLRLICAASGRTFVYYAMGWYRPAPGKERELVAAITWSGGRTYYADSVKGRFTISRDNAKNTVYLQMNSLKQEDTAVYYCNRDQWPWESGYAYNYWGQGTQVTVSS | low polyreactivity |
| QVQLVESGGGLVQAGGSLRLSCAASGFTFLFYAKGWYRHAPGKEMELVAAISWSGDTTYYADSVKGRFTISLDNSKNTVYLQMNSLKPEDTAVYYCNAESNIFGYDYWGQGTQVTVTS | high polyreactivity |
